Drawing on patent US20140178333A1, this text covers ISRE-luciferase fold induction over medium alone, 293 HEK cells transfected with ISRE-Luc. and IL-28R; ligand 100 ng/ml (fold induction) and ISRE-luciferase fold induction over medium alone, 293 HEK cells transfected with ISRE-Luc. and IL-28R; ligand 125 ng/ml (fold induction) for three substances.

The target in the assay is IL-28 receptor (IL-28 receptor alpha subunit with endogenous CRF2-4) on transfected 293 HEK cells (human). Put plainly: cell-based or functional assay.
Sequence of IL-28 receptor (IL-28 receptor alpha subunit with endogenous CRF2-4) on transfected 293 HEK cells (human) (Q8IU57 21-520): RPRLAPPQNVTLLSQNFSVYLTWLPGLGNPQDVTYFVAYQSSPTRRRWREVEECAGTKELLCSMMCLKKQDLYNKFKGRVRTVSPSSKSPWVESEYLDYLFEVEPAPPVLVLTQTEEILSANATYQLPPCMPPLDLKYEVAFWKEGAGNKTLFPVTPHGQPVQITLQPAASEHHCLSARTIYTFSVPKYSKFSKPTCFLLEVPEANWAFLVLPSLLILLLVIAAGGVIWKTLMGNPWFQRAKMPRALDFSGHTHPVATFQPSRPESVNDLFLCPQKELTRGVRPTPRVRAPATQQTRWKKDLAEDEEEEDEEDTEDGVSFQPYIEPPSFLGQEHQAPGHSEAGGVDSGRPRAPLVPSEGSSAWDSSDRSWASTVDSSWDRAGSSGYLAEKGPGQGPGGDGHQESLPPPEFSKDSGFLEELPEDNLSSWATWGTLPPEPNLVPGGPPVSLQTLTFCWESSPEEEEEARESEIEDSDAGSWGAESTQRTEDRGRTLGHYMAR

Turning to “HuIL10 (from UniProt P22301 19-178) (ligand)”, the ISRE-luciferase fold induction over medium alone, 293 HEK cells transfected with ISRE-Luc. and IL-28R; ligand 100 ng/ml (fold induction) turned out to be 0.5.
The substance “IL-28B (SEQ ID NO:6) (from UniProt Q8IZI9 22-196) (ligand)” came in with an ISRE-luciferase fold induction over medium alone, 293 HEK cells transfected with ISRE-Luc. and IL-28R; ligand 125 ng/ml (fold induction) of 104.
Same read-out and setting: the figure for “Zcyto10 (from UniProt Q9NYY1 25-176) (ligand)” is 1.
